Data: patent US8444990

Tests used:
[1] = molecular target: soluble Her4 (Her4 receptor extracellular domain, residues 1 to 639) (human) (UniProt Q15303); test: EIA, plate coated with sHer4, control IgG at 100 µg/ml, absorbance at 405 nm
[2] = molecular target: soluble Her3 (Her3 extracellular domain) (UniProt P21860); test: EIA, plate coated with sHer3, control IgG at 100 µg/ml, absorbance at 405 nm
[3] = molecular target: soluble Her2 (Her2 extracellular ligand binding domain, residues 1-653, fused to the FLAG sequence) (UniProt P04626); test: EIA, plate coated with sHer2, control IgG at 10 ng/ml, absorbance at 405 nm

Chain of UniProt Q15303 (Q15303 other isoform, or with tags, fused parts or gaps limits assumed, form in doubt): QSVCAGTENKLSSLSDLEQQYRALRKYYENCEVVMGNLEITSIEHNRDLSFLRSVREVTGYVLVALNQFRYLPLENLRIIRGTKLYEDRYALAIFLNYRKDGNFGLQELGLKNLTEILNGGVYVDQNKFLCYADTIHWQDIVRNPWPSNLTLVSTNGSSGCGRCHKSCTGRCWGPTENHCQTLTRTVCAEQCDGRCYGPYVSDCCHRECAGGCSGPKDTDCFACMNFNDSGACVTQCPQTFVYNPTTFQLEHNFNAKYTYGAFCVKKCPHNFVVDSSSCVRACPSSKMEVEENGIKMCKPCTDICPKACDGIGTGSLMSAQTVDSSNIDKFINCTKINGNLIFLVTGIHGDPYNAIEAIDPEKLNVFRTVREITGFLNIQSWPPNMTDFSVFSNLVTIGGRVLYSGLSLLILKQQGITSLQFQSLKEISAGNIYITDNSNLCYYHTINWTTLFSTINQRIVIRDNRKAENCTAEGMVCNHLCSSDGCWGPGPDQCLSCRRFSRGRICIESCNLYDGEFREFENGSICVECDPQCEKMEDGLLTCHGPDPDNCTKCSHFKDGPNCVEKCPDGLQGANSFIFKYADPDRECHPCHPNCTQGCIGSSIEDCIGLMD
Chain of UniProt P21860 (P21860 20-643 limits assumed): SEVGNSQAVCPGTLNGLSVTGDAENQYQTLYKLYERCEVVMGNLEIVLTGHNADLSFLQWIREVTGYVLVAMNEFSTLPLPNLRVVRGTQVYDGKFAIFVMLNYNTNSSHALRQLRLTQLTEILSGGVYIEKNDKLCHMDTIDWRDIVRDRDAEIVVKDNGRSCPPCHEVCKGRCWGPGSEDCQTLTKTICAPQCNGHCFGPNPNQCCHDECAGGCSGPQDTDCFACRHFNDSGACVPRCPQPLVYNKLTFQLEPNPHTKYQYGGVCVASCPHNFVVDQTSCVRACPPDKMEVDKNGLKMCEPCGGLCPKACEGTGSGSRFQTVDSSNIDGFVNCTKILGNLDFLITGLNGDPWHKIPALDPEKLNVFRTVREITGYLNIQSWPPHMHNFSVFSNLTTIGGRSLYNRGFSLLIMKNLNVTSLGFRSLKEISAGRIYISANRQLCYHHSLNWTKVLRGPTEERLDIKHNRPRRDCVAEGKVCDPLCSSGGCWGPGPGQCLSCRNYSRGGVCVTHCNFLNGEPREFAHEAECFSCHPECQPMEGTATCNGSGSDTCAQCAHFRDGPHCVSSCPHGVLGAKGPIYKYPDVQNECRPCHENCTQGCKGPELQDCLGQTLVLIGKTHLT

Mouse IgG (antibody)
O.D. of 100 ug/ml [1]: 0.9 O.D. | O.D. of 100 ug/ml [2]: 1.2 O.D. | O.D. of 10 ng/ml [3]: 0.09 O.D.
